From patent US9364516B2, “Treatment of fibrosis-related disorders using fibronectin binding proteins and polypeptides” (priority 2010, dated 2016)

How the values were obtained:
human saphenous veins = experiment: Ex vivo cultured human saphenous veins, intimal thickening; details: 10× higher levels than 100-500 nM
Protocol: Saphenous veins were cut into 0.5 cm segments, and processed immediately (●) or cultured in 10% FBS/M199 containing 15 μM control III-11c peptide (▪) or pUR4 (▴) at 37° C. for 14 days. Veins were fixed, paraffin embedded, sectioned, and stained. Morphometric analysis was performed on six randomly chosen sections using Image-Pro Plus software. The intima/media ratio was determined by dividing intima area by media area. Paired student t-test was used to analyze the data. Data are expressed as mean±S.E.M. *p<0.05.
Human saphenous veins cultured in serum containing media develop intimal hyperplasia after 14 days in culture (Soyombo et al., “Intimal Proliferation in an Organ Culture of Human Saphenous Vein,” Am J Pathol. 137(6):1401-1410 (1990); Angelini et al., “Smooth Muscle Cell Proliferation in Response to Injury in an Organ Culture of Human Saphenous Vein,” Eur J Vasc Surg. 5(1):5-12 (1991); and Slomp et al., “Nature and Origin of the Neointima in Whole Vessel Wall Organ Culture of the Human Saphenous Vein,” Virchows Arch. 428(1):59-67 (1996), which are hereby incorporated by reference in their entirety). This system thus provides an ex vivo model system for studying mechanisms that lead to intimal hyperplasia that has distinct advantages over in vitro culture systems. […]

[1] = target: fibronectin-collagen interactions (Homo sapiens, UniProt P02751); experiment: Blocking of fibronectin-collagen interactions in cell culture; format: cell-based; details: cell culture experiments
Chain of fibronectin-collagen interactions (P02751 32-2477): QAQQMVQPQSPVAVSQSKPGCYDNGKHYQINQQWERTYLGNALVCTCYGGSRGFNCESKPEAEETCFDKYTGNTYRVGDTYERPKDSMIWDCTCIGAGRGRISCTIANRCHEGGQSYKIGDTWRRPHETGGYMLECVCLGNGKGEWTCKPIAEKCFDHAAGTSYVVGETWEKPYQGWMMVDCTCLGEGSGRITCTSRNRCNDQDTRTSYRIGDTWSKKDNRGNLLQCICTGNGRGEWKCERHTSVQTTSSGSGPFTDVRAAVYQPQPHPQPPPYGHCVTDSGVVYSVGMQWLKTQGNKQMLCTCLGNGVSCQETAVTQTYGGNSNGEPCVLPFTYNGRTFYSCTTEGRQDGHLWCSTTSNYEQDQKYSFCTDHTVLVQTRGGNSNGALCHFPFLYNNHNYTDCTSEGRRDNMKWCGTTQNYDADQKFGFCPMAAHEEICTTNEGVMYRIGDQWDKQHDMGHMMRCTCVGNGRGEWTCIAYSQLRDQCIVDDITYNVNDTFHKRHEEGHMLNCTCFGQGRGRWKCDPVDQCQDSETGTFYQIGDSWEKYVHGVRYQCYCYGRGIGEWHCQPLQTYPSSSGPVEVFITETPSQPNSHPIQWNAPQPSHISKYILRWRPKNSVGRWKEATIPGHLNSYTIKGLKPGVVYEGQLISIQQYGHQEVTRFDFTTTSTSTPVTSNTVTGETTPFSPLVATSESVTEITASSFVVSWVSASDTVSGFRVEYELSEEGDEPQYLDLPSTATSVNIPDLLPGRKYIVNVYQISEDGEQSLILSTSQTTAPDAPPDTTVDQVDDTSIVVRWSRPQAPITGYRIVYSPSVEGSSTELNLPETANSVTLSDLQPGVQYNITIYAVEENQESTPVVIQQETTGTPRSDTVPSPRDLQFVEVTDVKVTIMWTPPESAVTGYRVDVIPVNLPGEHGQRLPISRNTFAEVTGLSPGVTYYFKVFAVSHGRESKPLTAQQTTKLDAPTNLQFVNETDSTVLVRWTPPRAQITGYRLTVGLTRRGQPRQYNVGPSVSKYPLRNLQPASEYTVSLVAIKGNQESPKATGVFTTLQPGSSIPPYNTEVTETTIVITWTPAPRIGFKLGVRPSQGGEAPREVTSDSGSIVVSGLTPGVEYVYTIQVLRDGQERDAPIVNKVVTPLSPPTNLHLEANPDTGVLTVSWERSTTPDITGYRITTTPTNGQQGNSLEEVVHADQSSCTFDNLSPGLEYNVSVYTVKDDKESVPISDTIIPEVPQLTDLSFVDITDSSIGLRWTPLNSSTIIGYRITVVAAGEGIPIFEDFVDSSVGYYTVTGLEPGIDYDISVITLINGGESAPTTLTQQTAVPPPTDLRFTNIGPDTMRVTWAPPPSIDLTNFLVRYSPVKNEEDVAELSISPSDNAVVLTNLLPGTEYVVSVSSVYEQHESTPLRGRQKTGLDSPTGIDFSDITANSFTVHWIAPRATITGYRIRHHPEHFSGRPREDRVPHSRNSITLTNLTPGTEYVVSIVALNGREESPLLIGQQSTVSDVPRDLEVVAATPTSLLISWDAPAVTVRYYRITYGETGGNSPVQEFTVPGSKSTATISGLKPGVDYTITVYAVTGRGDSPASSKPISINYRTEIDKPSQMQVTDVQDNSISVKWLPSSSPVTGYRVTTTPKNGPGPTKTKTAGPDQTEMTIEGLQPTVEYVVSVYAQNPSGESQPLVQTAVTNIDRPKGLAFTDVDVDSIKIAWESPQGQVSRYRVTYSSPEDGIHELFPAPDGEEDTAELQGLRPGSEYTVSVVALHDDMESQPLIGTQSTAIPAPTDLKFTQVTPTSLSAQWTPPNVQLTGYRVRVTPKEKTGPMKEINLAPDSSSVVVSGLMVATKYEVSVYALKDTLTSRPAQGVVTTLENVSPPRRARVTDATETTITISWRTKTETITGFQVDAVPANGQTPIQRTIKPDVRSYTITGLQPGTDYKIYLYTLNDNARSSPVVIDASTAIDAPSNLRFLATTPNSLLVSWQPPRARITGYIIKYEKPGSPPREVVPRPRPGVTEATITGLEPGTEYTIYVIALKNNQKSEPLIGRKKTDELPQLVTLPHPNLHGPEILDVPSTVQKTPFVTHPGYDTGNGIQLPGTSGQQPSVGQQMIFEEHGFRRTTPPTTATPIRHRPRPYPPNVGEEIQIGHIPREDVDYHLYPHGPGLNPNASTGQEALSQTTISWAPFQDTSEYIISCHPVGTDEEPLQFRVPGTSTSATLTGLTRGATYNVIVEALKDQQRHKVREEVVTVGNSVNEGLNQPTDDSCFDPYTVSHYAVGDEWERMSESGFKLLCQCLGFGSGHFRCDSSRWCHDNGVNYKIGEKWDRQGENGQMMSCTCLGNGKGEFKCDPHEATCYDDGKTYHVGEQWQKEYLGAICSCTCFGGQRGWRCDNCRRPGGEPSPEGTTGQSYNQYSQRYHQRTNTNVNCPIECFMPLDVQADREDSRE

B1: R1R2: class II bacterial adhesin derived peptide (SEQ ID NO: 4) that interferes with fibronectin-collagen binding (peptide)
chain: HHHHHHGSGLNGENQKEPEQGERGEAGPPLSGLSGNNQGRPSLPGLNGENQKEPEQGERGEAGPPKSN
modifications: Bacterial adhesin derived peptide R1R2
intimal hyperplasia (human saphenous veins): attenuate
concentrations effective at blocking fibronectin-collagen interactions [1]: 100 to 500 nM
